Publication PMC2734569, “Functional mapping of the fission yeast DNA polymerase δ B-subunit Cdc1 by site-directed and random pentapeptide insertion mutagenesis” (BMC Molecular Biology, 2009)

Key:
Assay in all cases: two-hybrid; LexA-Cdc1 bait (pBTM116 or pBTM116BN) with Gal4 activation domain-Cdc27 prey (pGAD2F-Cdc27) in S. cerevisiae CTY10-5d; ONPG liquid culture beta-galactosidase assay, mean of triplicates, as percent of wild-type Cdc1
Conditions in all cases: partners not purified
Cdc1-A5 = molecular target: T1, Cdc1-A5 (Schizosaccharomyces pombe, UniProt P87324 1-462, Asn328Ala)
T1 construct: Cdc1, S. pombe, point mutant; source: yeast two-hybrid fusion, in S. cerevisiae CTY10-5d
T1 sequence (looked up): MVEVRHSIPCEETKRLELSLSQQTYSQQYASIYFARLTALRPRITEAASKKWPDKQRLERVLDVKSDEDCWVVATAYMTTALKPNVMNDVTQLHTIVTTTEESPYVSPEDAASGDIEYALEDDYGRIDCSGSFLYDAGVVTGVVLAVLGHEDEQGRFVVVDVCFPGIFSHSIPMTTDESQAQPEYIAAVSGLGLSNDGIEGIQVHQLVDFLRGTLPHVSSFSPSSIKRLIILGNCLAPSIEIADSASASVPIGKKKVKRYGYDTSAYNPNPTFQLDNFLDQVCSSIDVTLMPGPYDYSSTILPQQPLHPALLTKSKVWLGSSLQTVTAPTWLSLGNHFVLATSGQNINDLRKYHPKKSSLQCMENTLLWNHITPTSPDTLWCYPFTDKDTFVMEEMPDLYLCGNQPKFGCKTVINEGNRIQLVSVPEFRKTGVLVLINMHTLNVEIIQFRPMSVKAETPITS

Cdc1-J12 = molecular target: T2, Cdc1-J12 (Schizosaccharomyces pombe, UniProt P87324 1-462, Ser-GlyValProHisSer-Ile)
T2 construct: Cdc1, S. pombe, with a pentapeptide inserted after residue 7; source: yeast two-hybrid fusion, in S. cerevisiae CTY10-5d
T2 sequence (looked up): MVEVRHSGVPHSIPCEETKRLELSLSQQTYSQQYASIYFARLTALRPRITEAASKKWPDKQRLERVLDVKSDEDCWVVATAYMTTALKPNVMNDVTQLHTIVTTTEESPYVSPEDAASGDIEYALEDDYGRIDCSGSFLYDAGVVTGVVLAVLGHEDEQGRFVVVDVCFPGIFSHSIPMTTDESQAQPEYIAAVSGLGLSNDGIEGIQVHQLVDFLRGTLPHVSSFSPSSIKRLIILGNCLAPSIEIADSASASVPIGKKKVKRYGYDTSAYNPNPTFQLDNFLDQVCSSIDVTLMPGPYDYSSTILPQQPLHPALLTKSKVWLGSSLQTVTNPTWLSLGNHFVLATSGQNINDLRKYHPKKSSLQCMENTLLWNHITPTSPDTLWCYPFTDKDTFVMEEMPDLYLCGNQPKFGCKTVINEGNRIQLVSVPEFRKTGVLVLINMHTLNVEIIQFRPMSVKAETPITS

Cdc1-A1 = molecular target: T3, Cdc1-A1 (Schizosaccharomyces pombe, UniProt P87324 1-462, Pro292Ala)
T3 construct: Cdc1, S. pombe, point mutant; source: yeast two-hybrid fusion, in S. cerevisiae CTY10-5d
T3 sequence (looked up): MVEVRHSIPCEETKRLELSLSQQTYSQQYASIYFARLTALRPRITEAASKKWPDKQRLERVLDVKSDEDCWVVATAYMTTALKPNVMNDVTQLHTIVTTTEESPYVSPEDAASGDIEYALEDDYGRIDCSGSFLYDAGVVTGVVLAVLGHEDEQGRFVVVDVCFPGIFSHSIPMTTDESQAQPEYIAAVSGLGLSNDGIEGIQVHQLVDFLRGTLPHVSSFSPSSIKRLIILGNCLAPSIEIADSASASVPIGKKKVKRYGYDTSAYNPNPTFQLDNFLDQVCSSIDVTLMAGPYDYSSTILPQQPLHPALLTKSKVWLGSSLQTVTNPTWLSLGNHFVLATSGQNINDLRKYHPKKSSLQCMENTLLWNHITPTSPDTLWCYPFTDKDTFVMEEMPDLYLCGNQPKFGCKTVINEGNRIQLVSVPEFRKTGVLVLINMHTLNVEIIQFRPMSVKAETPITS

Cdc1-J7 = molecular target: T4, Cdc1-J7 (Schizosaccharomyces pombe, UniProt P87324 1-462, Met-GlyValProLeuMet-Glu)
T4 construct: Cdc1, S. pombe, with a pentapeptide inserted after residue 393; source: yeast two-hybrid fusion, in S. cerevisiae CTY10-5d
T4 sequence (looked up): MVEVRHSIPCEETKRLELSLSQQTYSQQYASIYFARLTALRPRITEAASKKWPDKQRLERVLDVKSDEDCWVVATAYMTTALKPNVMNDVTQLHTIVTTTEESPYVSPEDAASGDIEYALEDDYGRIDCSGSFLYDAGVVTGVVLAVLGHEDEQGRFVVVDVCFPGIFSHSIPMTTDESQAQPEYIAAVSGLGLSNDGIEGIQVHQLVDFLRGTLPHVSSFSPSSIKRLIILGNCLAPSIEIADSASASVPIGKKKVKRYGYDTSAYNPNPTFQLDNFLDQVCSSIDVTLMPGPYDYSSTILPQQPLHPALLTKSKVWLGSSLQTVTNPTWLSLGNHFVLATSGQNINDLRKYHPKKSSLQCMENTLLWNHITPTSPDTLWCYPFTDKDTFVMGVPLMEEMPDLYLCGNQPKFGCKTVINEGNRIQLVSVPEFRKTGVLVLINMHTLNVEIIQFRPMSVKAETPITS

B1: Cdc27 (fission yeast DNA polymerase delta C-subunit) (natural protein, Schizosaccharomyces pombe, UniProt P30261 1-372, looked up)
chain: MEEWRNFLDIKVINESSLVTVDNLSLQLDISSEKAQEYLNMFYQGNDFLYPIYLIHGQPIDDEINLEIDEESQPISNFPVLQYILCDKSSLQEKQSRLKSGYKTVIFALSSAPLSDFDELLPAVYEIREKDVLYKKEDADKYGFIFNENSVPRVLKKAPSTHSPQLSVPSKTSTIDKTDTRSTEKTKGKDIFSNARNQKGNSSRKNKKAPLENHKEKEPLLPKEEKLSEQAKRERDDLKNIMQLEDESVSTTSVHDSEDDNLDSNNFQLEIGTEAKSAAPDEPQEIIKSVSGGKRRGKRKVKKYATTKDEEGFLVTKEEEVWESFSEDENISTGTSNVVRNKPTTVNIATKKKNTAQSKPQQKSIMSFFGKK
notes: DNA polymerase delta C-subunit Cdc27, S. pombe; prey plasmid pGAD2F-Cdc27; also called pGAD2F-Cdc27; source: yeast two-hybrid fusion, in S. cerevisiae CTY10-5d
- two-hybrid beta-galactosidase activity, % of wild-type Cdc1 (Cdc1-A5): 37%
- two-hybrid beta-galactosidase activity, % of wild-type Cdc1 (Cdc1-J12): 59%
- two-hybrid beta-galactosidase activity, % of wild-type Cdc1 (Cdc1-A1): 44%
- two-hybrid beta-galactosidase activity, % of wild-type Cdc1 (Cdc1-J7): 19%
